One data set has as its target T1, Peptide-6b.
T1 chain: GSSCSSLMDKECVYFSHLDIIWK

A further data set deals with T2, Peptide-8 (not fully specified).
T2 chain: CQLYENKPRRPYILK

A further data set has as its target T3, Peptide-5 (not fully specified).
T3 chain: CDRVYIHPFHLK

For another data set, the target named is T4, Peptide-13 (not fully specified).
T4 chain: CRPPGFSPFRK

A further data set addresses T5, Peptide-6a.
T5 chain: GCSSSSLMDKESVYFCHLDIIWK

Another data set has as its target T6, Peptide-3.
T6 chain: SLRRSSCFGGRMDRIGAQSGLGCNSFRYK

Among the data in patent publication US20120237496 are activity relative to G399V/G714K (B1) and kapp ratio vs G399V/G714K (B1) values, retold here.

B1: C1 (protein)
chain: YPYDVPDYAYPYDVPDYAYPYDVPDYAGSYDDGICKSSDCIKSAARLIQNMDATTEPCTDFFKYACGGWLKRNVIPETSSRYGNFDILRDELEVVLKDVLQEPKTEDIVAVQKAKALYRSCINESAIDSRGGEPLLKLLPDIYGWPVATENWEQKYGASWTAEKAIAQLNSKYGKKVLINLFVGTDDKNSVNHVIHIDQPRLGLPSRDYYECTGIYKEACTAYVDFMISVARLIRQEERLPIDENQLALEMNKVMELEKEIANATAKPEDRNDPMLLYNKMTLAQIQNNFSLEINGKPFSWLNFTNEIMSTVNISITNEEDVVVYAPEYLTKLKPILTKYSARDLQNLMSWRFIMDLVSSLSRTYKESRNAFRKALYVTTSETATWRRCANYVNGNMMNAVGRLYVEAAFAGESKHVVEDLIAQIREVFIQTLDDLTWMDAETKKRAEEKALAIKERIGYPDDIVSNDNKLNNEYLELNYKEDEYFENIIQNLKFSQSKQLKKLREKVDKDEWISGAAVVNAFYSSGRNQIVFPAGILQPPFFSAQQSNSLNYGGIGMVIGHEITHGFDDNGRNFNKDGDLVDWWTQQSASNFKEQSQCMVYQYGNFSWDLAGGQHLNGINTLGENIADNGGLGQAYRAYQNYIKKNGEEKLLPGLDLNHKQLFFLNFAQVWCGTYRPEYAVNSIKTVVHSPKNFRIIGTLQNSAEFSEAFHCRKNSYMNPEKKCRVW
In the case of B1, the activity relative to G399V/G714K (B1) is 1.1 fold with Peptide-4; 1.12 fold in the data set with Peptide-2; 0.86 fold with Peptide-5; 1.14 fold with Peptide-1; 0.76 fold in the data set with Peptide-6a; 0.96 fold with Peptide-7. In addition, the kapp ratio vs G399V/G714K (B1) with Peptide-4 came to 0.51 fold; with Peptide-6b, 0.76 fold; in the data set with Peptide-8, 0.62 fold; with Peptide-2 it was 1.23 fold; with Peptide-5, 1.02 fold; in the data set with Peptide-1, 1.28 fold. Also, the kapp ratio vs G399V/G714K (B1) was determined as 0.52 fold with Peptide-13, 0.97 fold in the data set with Peptide-6a, 0.36 fold with Peptide-3 and 0.9 fold with Peptide-7.

B2: D7 (protein)
chain: YPYDVPDYAYPYDVPDYAYPYDVPDYAGSYDDGICKSSDCIKSAARLIQNMDATTEPCTDFFKYACGGWLKRNVIPETSSRYGNFDILRDELEVVLKDVLQEPKTEDIVAVQKAKALYRSCINESAIDSRGGEPLLKLLPDIYGWPVATENWEQKYGASWTAEKAIAQLNSKYGKKVLINLFVGTDDKNSVNHVIHIDQPRLGLPRRDYYECTGIYKEACTAYVDLMISVARLIRQEERLPIDENQLALEMNKVMELEKEIANATAKPEDRNDPMLLYNKMTLAQIQNNFSLEINGKPFSWLNFTNEIMSTVNISITNEEDVVVYAPEYLTKLKPILTKYSARDLQNLMSWRFIMGLVSSLSRTYKESRNAFRKALYVTTSETATWRRCANYVNGNMMNAVGRLYVEAAFAGESKHVVEDLIAQIREVFIQTLDDLTWMDAETKKRAEEKALAIKERIGYPDDIVSNDNKLNNEYLELNYKEDEYFENIIQNLKFSQSKQLKKLREKVDKDEWISGAAVVNAFYSSGRNQIVFPAGILQPPFFSAQQSNSLNYGGIGMVIGHEITHGFMDNVRNPNKDDDLVDWWTQQSASNFKEQSQCMVYQYGNFSWDLAGGQHLNGINTLGENIADNGGLGQAYRAYQNYIKKNGEEKLLPGLDLNHKQLFFLNFAQVWCGTYRPEYAVNSIKTDVHSPKNFRIIGTLQNSAEFSEAFHCRKNSYMNPEKKCRVW
In the case of B2, the activity relative to G399V/G714K (B1) with Peptide-4 was 0.91 fold; with Peptide-2, 1.18 fold; with Peptide-5, 0.09 fold; with Peptide-1 it was 0.88 fold; in the data set with Peptide-6a, 0.13 fold; in the data set with Peptide-7, 0.66 fold.

B3: D9 (protein)
chain: YPYDVPDYAYPYDVPDYAYPYDVPDYAGSYDDGICKSSDCIKSAARLIQNMDATTEPCTDFFKYACGGWLKRNVIPETSSRYGNFDILRDELEVVLKDVLQEPKTEDIVAVQKAKALYRSCINESAIDSRGGEPLLKLLPDIYGWPVATENWEQKYGASWTAEKAIAQLNSKYGKKVLINLFVGTDDKNSVNHVIHIDQPRLGLPRRDYYECTGIYKEACTAYVDLMISVARLIRQEERLPIDENQLALEMNKVMELEKEIANATSKPEDRNDPMLLYNKMTLAQIQNNFSLEINGKPFSWLNFTNEIMSTVNISITNEEDVVVYAPEYLTKLKPILTKYSARDLQNLMSWRFIMGLVSSLSRTYKESRNAFRKALYVTTSETATWRRCANYVNGNMMNAVGRLYVEAAFAGESKHVVEDLIAQIREVFIQTLDDLTWMDAETKKRAEEKALAIKERIGYPDDIVSNDNKLNNEYLELNYKEDEYFENIIQNLKFSQSKQLKKLREKVDKDEWISGAAVVNAFYSSGRNQIVFPAGILQPPFFSAQQSNSLNYGGIGMVIGHEITHGFMDNVRNPNKDDDLVDWWTQQSASNFKEQSQCMVYQYGNFSWDLAGGQHLNGINTLGENIADNGGLGQAYRAYQNYIKKNGEEKLLPGLDLNHKQLFFLNFAQVWCGTYRPEYAVNSIKTDVHSPKNFRIIGTLQNSAEFSEAFHCRKNSYMNPEKKCRVW
B3: the activity relative to G399V/G714K (B1) with Peptide-4 was 0.86 fold; in the data set with Peptide-2, 1.11 fold; with Peptide-5, 0.08 fold; in the data set with Peptide-1, 1.07 fold; with Peptide-6a, 0.06 fold; with Peptide-7 it was 0.43 fold.

B4: D8 (protein)
chain: YPYDVPDYAYPYDVPDYAYPYDVPDYAGSYDDGICKSSDCIKSAARLIQNMDATTEPCTDFFKYACGGWLKRNVIPETSSRYGNFDILRDELEVVLKDVLQEPKTEDIVAVQKAKALYRSCINESAIDSRGGEPLLKLLPDIYGWPVATENWEQKYGASWTAEKAIAQLNSKYGKKVLINLFVGTDDKNSVNHVIHIDQPRLGLPRRDYYECTGIYKEACTAYVDLMISVARLIRQEERLPIDENQLALEMNKVMELEKEIANATAKPEDRNDPMLLYNKMTLAQIQNNFSLEINGKPFSWLNFTNEIMSTVNISITNEEDVVVYAPEYLTKLKPILTKYSARDLQNLMSWRFIMDLVSSLSRTYKESRNAFRKALYVTTSETATWRRCANYVNGNMMNAVGRLYVEAAFAGESKHVVEDLIAQIREVFIQTLDDLTWMDAETKKRAEEKALAIKERIGYPDDIVSNDNKLNNEYLELNYKEDEYFENIIQNLKFSQSKQLKKLREKVDKDEWISGAAVVNAFYSSGRNQIVFPAGILQPPFFSAQQSNSLNYGGIGMVIGHEITHGFMDNVRNPNKDDDLVDWWTQQSASNFKEQSQCMVYQYGNFSWDLAGGQHLNGINTLQENIADNGGLGQAYRAYQNYIKKNGEEKLLPGLDLNHKQLFFLNFAQVWCGTYRPEYAVNSIKTDVHSPKNFRIIGTLQNSAEFSEAFHCRKNSYMNPEKKCRVW
On to B4, for which the activity relative to G399V/G714K (B1) with Peptide-4 came out at 0.95 fold; with Peptide-2, 2.66 fold; in the data set with Peptide-5, 0.09 fold; in the data set with Peptide-1 it was 2.58 fold; in the data set with Peptide-6a, 0.44 fold; with Peptide-7, 0.82 fold.

B5: C2 (protein)
chain: YPYDVPDYAYPYDVPDYAYPYDVPDYAGSYDDGICKSSDCIKSAARLIQNMDATTEPCTDFFKYACGGWLKRNVIPETSSRYGNFDILRDELEVVLKDVLQEPKTEDIVAVQKAKALYRSCINESAIDSRGGEPLLKLLPDIYGWPVATENWEQKYGASWTAEKAIAQLNSKYGKKVLINLFVGTDDKNSVNHVIHIDQPRLGLPRGDYYECTGIYKEACTAYVDLMISVARLIRQEERLPIDENQLALEMNKVMELEKEIANATAKPEDRNDPMLLYNKMTLAQIQNNFSLEINGKPFSWLNFTNEIMSTVNISITNEEDVVVYAPEYLTKLKPILTKYSARDLQNLMSWRFIMDLVSSLSRTYKESRNAFRKALYVTTSETATWRRCANYVNGNMMNAVGRLYVEAAFAGESKHVVEDLIAQIREVFIQTLDDLTWMDAETKKRAEEKALAIKERIGYPDDIVSNDNKLNNEYLELNYKEDEYFENIIQNLKFSQSKQLKKLREKVDKDEWISGAAVVNAFYSSGRNQIVFPAGILQPPFFSAQQSNSLNYGGIGMVIGHEITHGFFDNGRNPNKDDDLVDWWTQQSASNFKEQSQCMVYQYGNFSWDLAGGQHLNGINTLGENIADNGGLGQAYRAYQNYIKKNGEEKLLPGLDLNHKQLFFLNFAQVWCGTYRPEYAVNSIKTDVHSPKNFRIIGTLQNSAEFSEAFHCRKNSYMNPEKKCRVW
As to B5, the kapp ratio vs G399V/G714K (B1) amounted to 0.72 fold with Peptide-4; 0.1 fold in the data set with Peptide-6b; 0.34 fold in the data set with Peptide-8; 0.88 fold with Peptide-2; 0.19 fold with Peptide-5; 1.06 fold with Peptide-1. For the same protein, the kapp ratio vs G399V/G714K (B1) in the data set with Peptide-13 turned out to be 0.68 fold; with Peptide-6a, 0.14 fold; in the data set with Peptide-3, 0.24 fold; with Peptide-7, 0.47 fold.

B6: D10 (protein)
chain: YPYDVPDYAYPYDVPDYAYPYDVPDYAGSYDDGICKSSDCIKSAARLIQNMDATTEPCTDFFKYACGGWLKRNVIPETSSRYGNFDILRDELEVVLKDVLQEPKTEDIVAVQKAKALYRSCINESAIDSRGGEPLLKLLPDIYGWPVATENWEQKYGASWTAEKAIAQLNSKYGKKVLINLFVGTDDKNSVNHVIHIDQPRLGLPRRDYYECTGIYKEACTAYVDLMISVARLIRQEERLPIDENQLALEMNKVMELEKEIANATSKPEDRNDPMLLYNKMTLAQIQNNFSLEINGKPFSWLNFTNEIMSTVNISITNEEDVVVYAPEYLTKLKPILTKYSARDLQNLMSWRFIMGLVSSLSRTYKESRNAFRKALYVTTSETATWRRCANYVNGNMMNAVGRLYVEAAFAGESKHVVEDLIAQIREVFIQTLDDLTWMDAETKKRAEEKALAIKERIGYPDDIVSNDNKLNNEYLELNYKEDEYFENIIQNLKFSQSKQLKKLREKVDKDEWISGAAVVNAFYSSGRNQIVFPAGILQPPFFSAQQSNSLNYGGIGMVIGHEITHGFMDNVRNPNKDDDLVDWWTQQSASNFKEQSQCMVYQYGNFSWDLAGGQHLNGINTLQENIADNGGLGQAYRAYQNYIKKNGEEKLLPGLDLNHKQLFFLNFAQVWCGTYRPEYAVNSIKTDVHSPKNFRIIGTLQNSAEFSEAFHCRKNSYMNPEKKCRVW
Take B6: the activity relative to G399V/G714K (B1) came out at 0.84 fold with Peptide-4; 1.26 fold with Peptide-2; 0.08 fold with Peptide-5; 1.33 fold with Peptide-1; 0.08 fold with Peptide-6a; 0.33 fold in the data set with Peptide-7.
